Measured values from PMC3411905.

B1: Cnn (natural protein)
chain: MNSNRTSSSHNSRNLKILNASFDVPRPPGGGNSPLPSQGRSVRELEEQMSALRKENFNLKLRIYFLEEGQPGARADSSTESLSKQLIDAKIEIATLRKTVDVKMELLKDAARAISHHEELQRKADIDSQAIIDELQEQIHAYQMAESGGQPVENIAKTRKMLRLESEVQRLEEELVNIEARNVAARNELEFMLAERLESLTACEGKIQELAIKNSELVERLEKETASAESSNEAIDSLKVELEACRKENQDLVTSIRTLKHDMKRQVRSMKEAANTMDVQRQSILLLEATIKRKEKSCGSMQKNVLNYEALIAKLNAELETMRQQNVYFRELSENLQQKEVRQLDRGVAIVQPMRMTADAGRFVWQSGTIVAQEPLPLERQSAAATSNVSVSAVRLSSGPPPDQTYPVNGHDRAKYGLLQLFAAKLDWISAVPLALGHLALKIILLAMRLHSCLQNVHIPLRANRDLGAQLADKICELQEAQEKLKERERIHEQACRTIQKLMQKLSSQEKEIKKLNQENEQSANKENDCAKTVISPSSSGRSMSDNEASSQEMSTNLRVRYELKINEQEEKIKQLQTEVKKKTANLQNLVNKELWEKNREVERLTKLLANQQKTLPQISEESAGEADLQQSFTEAEYMRALERNKLLQRKVDVLFQRLADDQQNSAVIGQLRLELQQARTEVETADKWRLECVDVCSVLTNRLEELAGFLNSLLKHKDVLGVLAADRRNAMRKAVDRSLDLSKSLNMTLNITATSLADQSLAQLCNLSEILYTEGDASHKTFNSHEELHAATSMAPTVENLKAENKALKKELEKRRSSEGQRKERRSLPLPSQQFDNQSESEAWSEPDRKVSLARIGLDETSNSLAAPEQAISESESEGRTCATRQDRNRNSERIAQLEEQIAQKDERMLNVQCQMVELDNRYKQEQLRCLDITQQLEQLRAINEALTADLHAIGSHEEERMVELQRQLELKNQQIDQLKLAHSTLTADSQITEMELQALQQQMQEIEQLHADSVETLQSQLQKLKLDAVQQLEEHERLHREALERDWVALTTYQEQAQQLLELQRSLDYHQENEKELKQTLVENELATRALKKQLDESTLQASKAVMERTKAYNDKLQLEKRSEELRLQLEALKEEHQKLLQKRSNSSDVSQSGYTSEEVAVPMGPPSGQATTCKQAAAAVLGQRVNTSSPDLGIESDAGRISSVEVSNAQRAMLKTVEMKTEGSASPKAKSEESTSPDSKSNVATGAATVHDCAKVDLENAELRRKLIRTKRAFEDTYEKLRMANKAKAQVEKDIKNQILKTHNVLRNVRSNMENEL

Molecular target: Sas-4-NΔT GST (Drosophila) (UniProt Q9VI72)
Test: pull-down

Row | Molecule | fold amount pulled down relative to Sas-4-N [times]
1 | γ-tubulin (from UniProt P23257 1-475) (natural protein) | 3
2 | Asl (from UniProt Q9VNE4 1-994) (natural protein) | 3
3 | Grip128 (natural protein) | 3
4 | B1 | 3
